Source: patent US20100260668A1 (published 2010)

Experiments:
[1] = molecular target: T1, HGF-His tag (UniProt P14210 32-728); assay: direct bind ELISA (C-term VD)
T1 construct: Bought antigen coated on the ELISA plate; not shown: His tag

[2] = molecular target: T2, VEGF 1-165 aa (UniProt P15692 27-191); assay: direct bind ELISA (N-term VD);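 also: ELISA screen of antibodies for binding to plate-immobilized target antigen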
T2 construct: Bought antigen coated on the ELISA plate
T2 sequence (P15692 other isoform, or with tags, fused parts or gaps limits assumed): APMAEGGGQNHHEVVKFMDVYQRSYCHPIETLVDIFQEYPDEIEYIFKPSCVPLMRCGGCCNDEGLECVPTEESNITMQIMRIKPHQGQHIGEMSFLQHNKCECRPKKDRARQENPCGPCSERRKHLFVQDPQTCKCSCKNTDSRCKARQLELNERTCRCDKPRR
Procedure: Enzyme Linked Immunosorbent Assays to screen for antibodies that bind a desired target antigen were performed as follows. […] Plates were washed four times with PBS containing 0.02% Tween 20. Plates were blocked by the addition of 300 μL/well blocking solution (non-fat dry milk powder, various retail suppliers, diluted to 2% in PBS) for ½ hour at room temperature. Plates were washed four times after blocking with PBS containing 0.02% Tween 20.
Alternatively, one hundred microliters per well of 10 μg/ml of Histidine (His) tagged desired target antigen (R&D Systems, Minneapolis, Minn.) was added to ELISA plates coated with monoclonal mouse anti-polyHistidine antibody as described above and incubated for 1 hour at room temperature. Wells were washed four times with PBS containing 0.02% Tween 20.
Plates were washed 4 times with PBS containing 0.02% Tween 20.

T1 sequence (P14210 32-728 limits assumed): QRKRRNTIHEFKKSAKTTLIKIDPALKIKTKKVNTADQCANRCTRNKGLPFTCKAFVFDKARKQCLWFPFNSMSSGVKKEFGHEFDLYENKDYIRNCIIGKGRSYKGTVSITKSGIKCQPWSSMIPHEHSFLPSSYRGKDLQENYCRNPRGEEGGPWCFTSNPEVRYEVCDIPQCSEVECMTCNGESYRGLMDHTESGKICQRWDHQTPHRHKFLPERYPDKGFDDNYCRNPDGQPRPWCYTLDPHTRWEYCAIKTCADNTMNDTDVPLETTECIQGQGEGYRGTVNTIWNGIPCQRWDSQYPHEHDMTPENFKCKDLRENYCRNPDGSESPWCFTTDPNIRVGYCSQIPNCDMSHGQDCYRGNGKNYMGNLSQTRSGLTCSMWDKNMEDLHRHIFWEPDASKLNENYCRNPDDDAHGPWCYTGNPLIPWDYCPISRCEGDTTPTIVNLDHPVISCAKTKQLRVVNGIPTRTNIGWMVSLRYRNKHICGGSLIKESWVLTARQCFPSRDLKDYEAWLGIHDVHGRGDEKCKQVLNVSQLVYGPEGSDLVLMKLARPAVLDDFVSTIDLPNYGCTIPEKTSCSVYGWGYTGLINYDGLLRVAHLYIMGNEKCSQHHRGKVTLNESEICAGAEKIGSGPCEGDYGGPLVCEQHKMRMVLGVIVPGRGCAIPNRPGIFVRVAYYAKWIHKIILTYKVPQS

Binder	EC50 [1]	EC50 [2]
DVD662 (bispecific antibody, human IgG1, kappa, DVD-Ig; HC linker short, LC linker short; vectors V1/V2) heavy: not shown light: DIQMTQSPSSLSASVGDRVTITCRASQDVSTAVAWYQQKPGKAPKLLIYSASFLYSGVPSRFSGSGSGTDFTLTISSLQPEDFATYYCQQSYTTPPTFGQGTKVEIKRTVAAPDIQMTQSPSSLSASVGDRVTITCKASENVVSYVSWYQQKPGKAPKLLIYGASNRNTGVPSRFSGSGSGTDFTLTISSLQPEDFATYYCGQSYNYPYTFGQGTKLEIKRTVAAPSVFIFPPSDEQLKSGTASVVCLLNNFYPREAKVQWKVDNALQSGNSQESVTEQDSKDSTYSLSSTLTLSKADYEKHKVYACEVTHQGLSSPVTKSFNRGEC	214 nM	70.2 nM
DVD674 (bispecific antibody, human IgG1, kappa, DVD-Ig; HC linker long, LC linker short; vectors V1/V2) heavy: not shown light: DIQMTQSPSSLSASVGDRVTITCRASQDVSTAVAWYQQKPGKAPKLLIYSASFLYSGVPSRFSGSGSGTDFTLTISSLQPEDFATYYCQQSYTTPPTFGQGTKVEIKRTVAAPDIQMTQSPSSLSASVGDRVTITCKASENVVSYVSWYQQKPGKAPKLLIYGASNRNTGVPSRFSGSGSGTDFTLTISSLQPEDFATYYCGQSYNYPYTFGQGTKLEIKRTVAAPSVFIFPPSDEQLKSGTASVVCLLNNFYPREAKVQWKVDNALQSGNSQESVTEQDSKDSTYSLSSTLTLSKADYEKHKVYACEVTHQGLSSPVTKSFNRGEC	17.6 nM	10.6 nM
DVD668 (bispecific antibody, human IgG1, kappa, DVD-Ig; HC linker long, LC linker long; vectors V1/V2) heavy: not shown light: DIQMTQSPSSLSASVGDRVTITCRASQDVSTAVAWYQQKPGKAPKLLIYSASFLYSGVPSRFSGSGSGTDFTLTISSLQPEDFATYYCQQSYTTPPTFGQGTKVEIKRTVAAPSVFIFPPDIQMTQSPSSLSASVGDRVTITCKASENVVSYVSWYQQKPGKAPKLLIYGASNRNTGVPSRFSGSGSGTDFTLTISSLQPEDFATYYCGQSYNYPYTFGQGTKLEIKRTVAAPSVFIFPPSDEQLKSGTASVVCLLNNFYPREAKVQWKVDNALQSGNSQESVTEQDSKDSTYSLSSTLTLSKADYEKHKVYACEVTHQGLSSPVTKSFNRGEC	20.2 nM	136 nM
DVD664 (bispecific antibody, human IgG1, kappa, DVD-Ig; N-term VD AB071 (VEGF), C-term VD AB079 (HGF); HC linker short, LC linker short; vectors V1/V2) heavy: not shown light: DIQMTQSPSSLSASVGDRVTITCRASQVIRRSLAWYQQKPGKAPKLLIYAASNLASGVPSRFSGSGSGTDFTLTISSLQPEDFATYYCQQSNTSPLTFGQGTKVEIKRTVAAPDIQMTQSPSSLSASVGDRVTITCKASENVVSYVSWYQQKPGKAPKLLIYGASNRNTGVPSRFSGSGSGTDFTLTISSLQPEDFATYYCGQSYNYPYTFGQGTKLEIKRTVAAPSVFIFPPSDEQLKSGTASVVCLLNNFYPREAKVQWKVDNALQSGNSQESVTEQDSKDSTYSLSSTLTLSKADYEKHKVYACEVTHQGLSSPVTKSFNRGEC	80.9 nM	40.9 nM
DVD676 (bispecific antibody, human IgG1, kappa, DVD-Ig; N-term VD AB071 (VEGF), C-term VD AB079 (HGF); HC linker long, LC linker short; vectors V1/V2) heavy: not shown light: DIQMTQSPSSLSASVGDRVTITCRASQVIRRSLAWYQQKPGKAPKLLIYAASNLASGVPSRFSGSGSGTDFTLTISSLQPEDFATYYCQQSNTSPLTFGQGTKVEIKRTVAAPDIQMTQSPSSLSASVGDRVTITCKASENVVSYVSWYQQKPGKAPKLLIYGASNRNTGVPSRFSGSGSGTDFTLTISSLQPEDFATYYCGQSYNYPYTFGQGTKLEIKRTVAAPSVFIFPPSDEQLKSGTASVVCLLNNFYPREAKVQWKVDNALQSGNSQESVTEQDSKDSTYSLSSTLTLSKADYEKHKVYACEVTHQGLSSPVTKSFNRGEC	35.8 nM	130 nM
DVD660 (bispecific antibody, human IgG1, kappa, DVD-Ig; HC linker short, LC linker short; vectors V1/V2) heavy: not shown light: DIQMTQSPSSLSASVGDRVTITCSASQDISNYLNWYQQKPGKAPKVLIYFTSSLHSGVPSRFSGSGSGTDFTLTISSLQPEDFATYYCQQYSTVPWTFGQGTKVEIKRTVAAPDIQMTQSPSSLSASVGDRVTITCKASENVVSYVSWYQQKPGKAPKLLIYGASNRNTGVPSRFSGSGSGTDFTLTISSLQPEDFATYYCGQSYNYPYTFGQGTKLEIKRTVAAPSVFIFPPSDEQLKSGTASVVCLLNNFYPREAKVQWKVDNALQSGNSQESVTEQDSKDSTYSLSSTLTLSKADYEKHKVYACEVTHQGLSSPVTKSFNRGEC	449 nM	1.51 nM
DVD672 (bispecific antibody, human IgG1, kappa, DVD-Ig; HC linker long, LC linker short; vectors V1/V2) heavy: not shown light: DIQMTQSPSSLSASVGDRVTITCSASQDISNYLNWYQQKPGKAPKVLIYFTSSLHSGVPSRFSGSGSGTDFTLTISSLQPEDFATYYCQQYSTVPWTFGQGTKVEIKRTVAAPDIQMTQSPSSLSASVGDRVTITCKASENVVSYVSWYQQKPGKAPKLLIYGASNRNTGVPSRFSGSGSGTDFTLTISSLQPEDFATYYCGQSYNYPYTFGQGTKLEIKRTVAAPSVFIFPPSDEQLKSGTASVVCLLNNFYPREAKVQWKVDNALQSGNSQESVTEQDSKDSTYSLSSTLTLSKADYEKHKVYACEVTHQGLSSPVTKSFNRGEC	22.9 nM	16.1 nM
DVD666 (bispecific antibody, human IgG1, kappa, DVD-Ig; HC linker long, LC linker long; vectors V1/V2) heavy: not shown light: DIQMTQSPSSLSASVGDRVTITCSASQDISNYLNWYQQKPGKAPKVLIYFTSSLHSGVPSRFSGSGSGTDFTLTISSLQPEDFATYYCQQYSTVPWTFGQGTKVEIKRTVAAPSVFIFPPDIQMTQSPSSLSASVGDRVTITCKASENVVSYVSWYQQKPGKAPKLLIYGASNRNTGVPSRFSGSGSGTDFTLTISSLQPEDFATYYCGQSYNYPYTFGQGTKLEIKRTVAAPSVFIFPPSDEQLKSGTASVVCLLNNFYPREAKVQWKVDNALQSGNSQESVTEQDSKDSTYSLSSTLTLSKADYEKHKVYACEVTHQGLSSPVTKSFNRGEC	14.7 nM	134 nM

Binders with a lower EC50 [1], results first:

EC50 [1]	EC50 [2]	Binder
5.17 nM	12.6 nM	DVD680 (bispecific antibody, human IgG1, kappa, DVD-Ig; HC linker short, LC linker long; vectors V1/V2) heavy: not shown light: DIQMTQSPSSLSASVGDRVTITCRASQDVSTAVAWYQQKPGKAPKLLIYSASFLYSGVPSRFSGSGSGTDFTLTISSLQPEDFATYYCQQSYTTPPTFGQGTKVEIKRTVAAPSVFIFPPDIQMTQSPSSLSASVGDRVTITCKASENVVSYVSWYQQKPGKAPKLLIYGASNRNTGVPSRFSGSGSGTDFTLTISSLQPEDFATYYCGQSYNYPYTFGQGTKLEIKRTVAAPSVFIFPPSDEQLKSGTASVVCLLNNFYPREAKVQWKVDNALQSGNSQESVTEQDSKDSTYSLSSTLTLSKADYEKHKVYACEVTHQGLSSPVTKSFNRGEC
3.1 nM	48.3 nM	DVD670 (bispecific antibody, human IgG1, kappa, DVD-Ig; N-term VD AB071 (VEGF), C-term VD AB079 (HGF); HC linker long, LC linker long; vectors V1/V2) heavy: not shown light: DIQMTQSPSSLSASVGDRVTITCRASQVIRRSLAWYQQKPGKAPKLLIYAASNLASGVPSRFSGSGSGTDFTLTISSLQPEDFATYYCQQSNTSPLTFGQGTKVEIKRTVAAPSVFIFPPDIQMTQSPSSLSASVGDRVTITCKASENVVSYVSWYQQKPGKAPKLLIYGASNRNTGVPSRFSGSGSGTDFTLTISSLQPEDFATYYCGQSYNYPYTFGQGTKLEIKRTVAAPSVFIFPPSDEQLKSGTASVVCLLNNFYPREAKVQWKVDNALQSGNSQESVTEQDSKDSTYSLSSTLTLSKADYEKHKVYACEVTHQGLSSPVTKSFNRGEC
4.69 nM	0.65 nM	DVD678 (bispecific antibody, human IgG1, kappa, DVD-Ig; HC linker short, LC linker long; vectors V1/V2) heavy: not shown light: DIQMTQSPSSLSASVGDRVTITCSASQDISNYLNWYQQKPGKAPKVLIYFTSSLHSGVPSRFSGSGSGTDFTLTISSLQPEDFATYYCQQYSTVPWTFGQGTKVEIKRTVAAPSVFIFPPDIQMTQSPSSLSASVGDRVTITCKASENVVSYVSWYQQKPGKAPKLLIYGASNRNTGVPSRFSGSGSGTDFTLTISSLQPEDFATYYCGQSYNYPYTFGQGTKLEIKRTVAAPSVFIFPPSDEQLKSGTASVVCLLNNFYPREAKVQWKVDNALQSGNSQESVTEQDSKDSTYSLSSTLTLSKADYEKHKVYACEVTHQGLSSPVTKSFNRGEC
